In article PMC5508204, “Escherichia coli FtsA forms lipid-bound minirings that antagonize lateral interactions between FtsZ protofilaments” (Nature Communications, 2017):

B1: Escherichia coli FtsA (natural protein, E. coli, UniProt P0ABH0 1-420, looked up)
chain: MIKATDRKLVVGLEIGTAKVAALVGEVLPDGMVNIIGVGSCPSRGMDKGGVNDLESVVKCVQRAIDQAELMADCQISSVYLALSGKHISCQNEIGMVPISEEEVTQEDVENVVHTAKSVRVRDEHRVLHVIPQEYAIDYQEGIKNPVGLSGVRMQAKVHLITCHNDMAKNIVKAVERCGLKVDQLIFAGLASSYSVLTEDERELGVCVVDIGGGTMDIAVYTGGALRHTKVIPYAGNVVTSDIAYAFGTPPSDAEAIKVRHGCALGSIVGKDESVEVPSVGGRPPRSLQRQTLAEVIEPRYTELLNLVNEEILQLQEKLRQQGVKHHLAAGIVLTGGAAQIEGLAACAQRVFHTQVRIGAPLNITGLTDYAQEPYYSTAVGLLHYGKESHLNGEAEVEKRVTASVGSWIKRLNSWLRKEF
notes: FtsA, actin homologue of the divisome, Escherichia coli, wild type; ATP is thought to be present in the preparation; 0.05 mM ADP was added for storage; also called WT FtsA; His6-tagged FtsA

What was measured:
[1] = target: the molecule itself; assay: negative stain electron tomography with subtomogram averaging; FtsA minirings with FtsZ protofilaments on lipid monolayers; 300 kV, single-axis tilt series -60 to +60 degrees; 23 tomograms; 18,400 ring-like structures averaged and classified
Escherichia coli FtsA = target: B1; assay: negative stain transmission electron microscopy on lipid monolayers; E. coli polar lipid monolayer under an EM grid, on storage buffer lacking EDTA (50 mM Tris pH 7.5, 250 mM KCl, 10 mM MgCl2, 10% glycerol). Added in turn: 0.1-1 uM FtsA (40 min), 4 mM ATP (20 min), 5 uM FtsZ (5 min), 4 mM GTP (20 min). Stained with 1% uranyl acetate.; details: both partners purified
[2] = target: the molecule itself; assay: as above

Row | Binder | stoichiometry N [1] | binding result (Escherichia coli FtsA) | binding result [2]
1 | B1 | 12 subunits | – | –
2 | Escherichia coli FtsZ (natural protein, E. coli, UniProt P0A9A6 1-383, looked up, FtsZ, tubulin homologue, Escherichia coli, wild type; Assembled with GTP in the assay; also called WT FtsZ; source: E. coli BL21(DE3), from a pET11 plasmid, purified (ammonium sulfate precipitation)) MFEPMELTNDAVIKVIGVGGGGGNAVEHMVRERIEGVEFFAVNTDAQALRKTAVGQTIQIGSGITKGLGAGANPEVGRNAADEDRDALRAALEGADMVFIAAGMGGGTGTGAAPVVAEVAKDLGILTVAVVTKPFNFEGKKRMAFAEQGITELSKHVDSLITIPNDKLLKVLGRGISLLDAFGAANDVLKGAVQGIAELITRPGLMNVDFADVRTVMSEMGYAMMGSGVASGEDRAEEAAEMAISSPLLEDIDLSGARGVLVNITAGFDLRLDEFETVGNTIRAFASDNATVVIGTSLDPDMNDELRVTVVATGIGMDKRPEITLVTNKQVQQPVMDRYQQHGMAPLTQEQKPVAKVVNDNAPQTAKEPDYLDIPAFLRKQAD | – | binds | binds
3 | FtsZ* (FtsZ L169R) (natural protein, E. coli, UniProt P0A9A6 1-383, looked up, FtsZ, Escherichia coli, gain-of-function mutant L169R (FtsZ*); Assembled with GTP in the assay; source: E. coli BL21(DE3), from a pET11 plasmid, purified (ammonium sulfate precipitation)) MFEPMELTNDAVIKVIGVGGGGGNAVEHMVRERIEGVEFFAVNTDAQALRKTAVGQTIQIGSGITKGLGAGANPEVGRNAADEDRDALRAALEGADMVFIAAGMGGGTGTGAAPVVAEVAKDLGILTVAVVTKPFNFEGKKRMAFAEQGITELSKHVDSLITIPNDKLRKVLGRGISLLDAFGAANDVLKGAVQGIAELITRPGLMNVDFADVRTVMSEMGYAMMGSGVASGEDRAEEAAEMAISSPLLEDIDLSGARGVLVNITAGFDLRLDEFETVGNTIRAFASDNATVVIGTSLDPDMNDELRVTVVATGIGMDKRPEITLVTNKQVQQPVMDRYQQHGMAPLTQEQKPVAKVVNDNAPQTAKEPDYLDIPAFLRKQAD | – | binds | binds
